Experiment [1] addresses FcγRIa of RAW 264.7 cells (mouse (endogenous in RAW 264.7)) (UniProt P26151).
For experiment [2], the target named is C-terminal truncated Myc-hFcγRIa which lacks the cytoplasmic tail (human) (UniProt P12314). Kind of experiment: adhesion of bacteria to transfected cells (total cell associated bacteria); COS-1 monolayers transfected with Myc-hFcγRIa, Myc-hFcγRIa-CT, Myc-hFcγRII or pcDNA3 (mock); E. coli K1 at an MOI of 100, 1.5 h, 37°C; cell associated bacteria plated.
Sequence of UniProt P12314 (P12314 16-314): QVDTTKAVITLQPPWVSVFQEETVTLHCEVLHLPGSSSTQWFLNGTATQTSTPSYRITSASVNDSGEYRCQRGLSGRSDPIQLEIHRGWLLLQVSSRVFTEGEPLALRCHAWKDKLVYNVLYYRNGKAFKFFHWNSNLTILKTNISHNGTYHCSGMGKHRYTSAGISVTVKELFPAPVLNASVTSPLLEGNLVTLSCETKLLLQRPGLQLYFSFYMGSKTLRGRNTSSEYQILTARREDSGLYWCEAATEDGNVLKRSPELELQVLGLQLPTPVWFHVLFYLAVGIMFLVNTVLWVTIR

Sequence of UniProt P26151 (P26151 25-404): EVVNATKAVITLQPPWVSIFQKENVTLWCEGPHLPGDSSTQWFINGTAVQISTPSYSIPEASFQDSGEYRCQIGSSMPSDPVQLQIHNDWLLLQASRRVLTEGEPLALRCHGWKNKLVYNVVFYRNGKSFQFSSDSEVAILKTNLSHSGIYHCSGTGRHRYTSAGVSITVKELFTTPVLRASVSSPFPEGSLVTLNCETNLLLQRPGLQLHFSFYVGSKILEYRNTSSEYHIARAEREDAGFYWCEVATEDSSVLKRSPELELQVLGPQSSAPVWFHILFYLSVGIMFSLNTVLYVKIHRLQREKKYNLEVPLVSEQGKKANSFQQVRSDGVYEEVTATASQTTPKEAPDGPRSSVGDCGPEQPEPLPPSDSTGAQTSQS

As to “outer membrane protein A (OmpA) of E. coli K1 (from UniProt P0A910 22-346) (natural protein)”, in experiment [1], the reduction of intracellular E. coli K1 in RAW 264.7 cells (gentamicin protection assay) by Fab fragments of anti-OmpA antibody or by anti-FcγRI antibody was found to be 80%. This substance also returned a decrease of bacterial binding against Myc-hFcγRIa+/COS-1 cells in experiment [2] of 30%.

These data come from paper PMC2987830.
